These results are taken from patent US20240150797A1, “BIOCATALYTICAL PRODUCTION OF DIHYDROCHALCONES” (Symrise AG, priority 2021, published 2024).

Residue numbers refer to the chain shown, from its start.

Holding throughout (format): biochemical
Conditions in all cases: purified CHI in 50 mM PBS, 100 μM substrate, 25° C.

Data set [1] can be described thus: Specific activity of purified CHI, absorbance decrease at 384 nm, 4-O-methyl butein. The procedure:
(§1) E. coli BL21 (DE3) cells containing one of the pET28b plasmids from Table 2 or Table 3 were used to inoculate 1 L LB medium at OD of 0.1. Cells were incubated at 37° C., 250 rpm until the OD reached 0.4-0.6 and induced by supplementing with 0.1 mM IPTG. After protein expression at 28° C., 250 rpm for 16 h, the cells were harvested by centrifugation at 4,000×g for 15 min. The harvested cells were lysed with 0.5 mg/mL lysozyme (Sigma-Aldrich), 0.4 U/mL Benzonase (Sigma-Aldrich) and BugBuster (Merck) at room temperature for 0.5 h to obtain a crude cell extract. The crude extract was centrifuged at 10,000×g for 30 min to remove the pellet. Recombinant proteins were purified by Ni-affinity chromatography (GE Healthcare). The supernatant of the crude extract was loaded on the column with 20 mM imidazole. The column was washed by 5 column volumes of 30 mM imidazole with 20 mM PBS (pH 7.4) and 500 mM NaCl. The target proteins were eluted by 150 mM imidazole with 20 mM PBS (pH 7.4) and 500 mM NaCl. Buffer exchange with 50 mM PBS (pH 7.5) was achieved by ultrafiltration with Amicon Ultra-15 (Merck). The activity of the respective purified enzyme was determined by measuring the absorbance decrease at 384 nm in the reaction mix (CHI in 50 mM PBS with 100 μM of either naringenin chalcone, hesperetin chalcone, eriodictyol chalcone, homoeriodictyol chalcone or 4-O-methyl butein at 25° C.).

Data set [2] is described as follows: Specific activity of purified CHI, absorbance decrease at 384 nm, naringenin chalcone. The procedure:
as §1

The nature of data set [3]: Specific activity of purified CHI, absorbance decrease at 384 nm, hesperetin chalcone. The protocol: as §1
The nature of data set [4]: Specific activity of purified CHI, absorbance decrease at 384 nm, eriodictyol chalcone. The procedure:
as §1

Data set [5] is described as follows: Specific activity of purified CHI, absorbance decrease at 384 nm, homoeriodictyol chalcone. The protocol: as §1

B1: CHIera Mut1: Chalcone isomerase variant 1 from Eubacterium ramulus, genetically engineered (protein, listed as Eubacterium ramulus)
chain: MADFKFEPMRSLIYVDCVSEDYRPKLQRWIYKVHIPDSISKFEPYVTKYAFYPSFPIPPQGDRFGYARMQLTEHHWLVSELDPRLEINAIAETFPMDVLVWQGQIPAAAHTDAQIDSDGDAGRAAGKSNNAEGNPFIFAFLPMWWEKDLKGKGRTIEDGANYRFNMTIGFPEGVDKAEGEKWLFEKVVPILQAAPECTRVLASAVKKDINGCVMDWVLEIWFENQSGWYKVMVDDMKALEKPSWAQQDAFPFLKPYHNVCSAAVADYTPSNNLANYRGYITMR
As to B1, the “Specific activity, 4-O-methyl butein” value in data set [1] is reported as 0.4. In addition, the “Specific activity, Naringenin chalcone” value in data set [2] came out at 32.6. Besides, the “Specific activity, Hesperetin chalcone” value in data set [3] is listed as 93.2. Also, the “Specific activity, Eriodictyol chalcone” value in data set [4] came to 59.5. The “Specific activity, Homoeriodctiol chalcone” value in data set [5] is on record as 23.7.

B2: CHIera Mut6: Chalcone isomerase variant 6 from Eubacterium ramulus, genetically engineered (protein, listed as Eubacterium ramulus)
chain: B1 chain with K41N, N88R, R123D, G126R
With B2, in data set [1], the “Specific activity, 4-O-methyl butein” value is 0.4. Further, the “Specific activity, Naringenin chalcone” value in data set [2] is given as 17.1. For the same molecule, the “Specific activity, Hesperetin chalcone” value in data set [3] came to 30.3. Moreover, the “Specific activity, Eriodictyol chalcone” value in data set [4] was 52.4. Besides, in data set [5], the “Specific activity, Homoeriodctiol chalcone” value stood at 20.0.

B3: CHIera Mut5: Chalcone isomerase variant 5 from Eubacterium ramulus, genetically engineered (protein, listed as Eubacterium ramulus)
chain: B1 chain with E80P, G126K
Regarding B3, the “Specific activity, 4-O-methyl butein” value in data set [1] was found to be 0.1. Moreover, in data set [2], the “Specific activity, Naringenin chalcone” value was found to be 8.0. For the same molecule, the “Specific activity, Hesperetin chalcone” value in data set [3] amounted to 4.5. Moreover, the “Specific activity, Eriodictyol chalcone” value in data set [4] was determined as 13.5. Moreover, the “Specific activity, Homoeriodctiol chalcone” value in data set [5] is on record as 8.8.

B4: CHIera Mut13: Chalcone isomerase variant 13 from Eubacterium ramulus, genetically engineered (protein, listed as Eubacterium ramulus)
chain: B1 chain with E80P, G122D, R123D, G126R
On to B4, for which the “Specific activity, 4-O-methyl butein” value in data set [1] stood at 1.4. In data set [2], the “Specific activity, Naringenin chalcone” value is reported as 28.0. Besides, the “Specific activity, Hesperetin chalcone” value in data set [3] was found to be 107.1. The “Specific activity, Eriodictyol chalcone” value in data set [4] came out at 28.0. Also, the “Specific activity, Homoeriodctiol chalcone” value in data set [5] is listed as 33.6.

B5: CHIera Mut3: Chalcone isomerase variant 3 from Eubacterium ramulus, genetically engineered (protein, listed as Eubacterium ramulus)
chain: B1 chain with K41N, N88K
For B5, the “Specific activity, 4-O-methyl butein” value in data set [1] came to 0.3. Further, the “Specific activity, Naringenin chalcone” value in data set [2] turned out to be 16.7. In addition, the “Specific activity, Hesperetin chalcone” value in data set [3] is 55.1. The “Specific activity, Eriodictyol chalcone” value in data set [4] is given as 39.2. Besides, the “Specific activity, Homoeriodctiol chalcone” value in data set [5] was determined as 13.0.

B6: CHIera Mut8: Chalcone isomerase variant 8 from Eubacterium ramulus, genetically engineered (protein, listed as Eubacterium ramulus)
chain: B1 chain with E80P, R123E, G126R
Take B6: in data set [1], the “Specific activity, 4-O-methyl butein” value is 0.5. The “Specific activity, Naringenin chalcone” value in data set [2] was determined as 25.6. The “Specific activity, Hesperetin chalcone” value in data set [3] was 83.9. In addition, the “Specific activity, Eriodictyol chalcone” value in data set [4] was 49.0. For the same molecule, the “Specific activity, Homoeriodctiol chalcone” value in data set [5] turned out to be 21.2.

B7: CHI8: Chalcone isomerase from Roseburia sp., access no. SCJ10619.1 (protein, listed as Roseburia sp.)
chain: RSLIYVDVAKEQYRVKLNHWLYAVHVPESISKFRPYVSQYAFYNALPVPPLGEQFGTVRMQLTEHYWQVNPMDVSMAVNVFTETFPTEVLIWQGNMPENAIALNYEGDEARSAKVENCNPFVFAFLPISWEEDLKGAGRTMADGPNYRWNFALHYPDGVSVETGDQWFYEKFVPAFLEIPEATRMVTSKIIKEINDCPMDRVVEIWFEGPDQWSAAMEKAKSIEPPEWAQEETFPYLKPYQNIMGVFVADNISSDNLNNHRGYITMR
For the molecule B7, the “Specific activity, 4-O-methyl butein” value in data set [1] stood at 1.2. The “Specific activity, Naringenin chalcone” value in data set [2] is 73.5. The “Specific activity, Hesperetin chalcone” value in data set [3] is listed as 19.2. For the same molecule, the “Specific activity, Eriodictyol chalcone” value in data set [4] is recorded as 33.9. Moreover, the “Specific activity, Homoeriodctiol chalcone” value in data set [5] was determined as 22.8.

B8: CHI9: Chalcone isomerase from Roseburia sp. OM02-15, access no. WP_118702262.1 (protein)
chain: GEITYQPLRSLIYVDCVKEEYRHKLQHWLYYYHAPESIAKFEPWVTKYAFYNALPTPPQGERFGTYRMQLTEHYWMVNPMSQESLVNSLNEYFPIDAMIWQGTLPENAKEDGFMADGEAARASGGDNGCPPFIFAFLPIFWEQDLKGAGRTMVDGPNYRWQFLVSYPEGHKEDGDQWMMNEVLPAFAAMPEVTRMMTSKVKKEINNCHMDRCVEMWFDGPEEWYHCAVENAASFKKPEWAEYDNFPYLRPQFQFASLFLTDIATSDNLKQYRGYLPMR
modifications: Roseburia sp. OM02-15
In the case of B8, the “Specific activity, 4-O-methyl butein” value in data set [1] came to 0.4. For the same molecule, the “Specific activity, Naringenin chalcone” value in data set [2] amounted to 22.7. Besides, the “Specific activity, Hesperetin chalcone” value in data set [3] worked out at 43.0. The “Specific activity, Eriodictyol chalcone” value in data set [4] was 69.7. For the same molecule, the “Specific activity, Homoeriodctiol chalcone” value in data set [5] came to 10.4.

B9: CHIera: Chalcone isomerase from Eubacterium ramulus (protein, listed as Eubacterium ramulus)
chain: ADFKFEPMRSLIYVDCVSEDYRPKLQRWIYKVHIPDSISQFEPYVTKYAFYPSFPIPPQGDRFGYARMQLTEHHWLVSDLDPRLEIKAIAETFPMDVLVWQGQIPAAAHTDAQIDSDGDAGNAARKSNNAEGNPFIFAFLPMWWEKDLKGKGRTIEDGANYRFNMTIGFPEGVDKAEGEKWLFEKVVPILQAAPECTRVLASAVKKDINGCVMDWVLEIWFENQSGWYKVMVDDMKALEKPSWAQQDAFPFLKPYHNVCSAAVADYTPSNNLANYRGYITMR
In the case of B9, the “Specific activity, 4-O-methyl butein” value in data set [1] was found to be 0.1. For the same molecule, the “Specific activity, Naringenin chalcone” value in data set [2] is reported as 270.0. In addition, in data set [3], the “Specific activity, Hesperetin chalcone” value turned out to be 31.5. The “Specific activity, Eriodictyol chalcone” value in data set [4] was 90.7. For the same molecule, the “Specific activity, Homoeriodctiol chalcone” value in data set [5] is listed as 44.5.
